The source of these data is patent US5958748, “DNA coding for serine/threonine kinase” (dated 1999).

The assay concerns the target fused protein of GAL4 DNA binding domain and mouse ATF4 leucine zipper domain (amino acids 298 to 349 in the … (mouse, UniProt P04386)). Nature of the assay: yeast two-hybrid, colony formation on histidine-, tryptophan-, leucine- medium. As to the method:
The site to which ZIP-kinase and ATF4 bind was determined using yeast two-hybrid system. First, variants of mouse ZIP-kinase were prepared: 1) amino acids 278 to 448 of ZIP-kinase (ZIP-kinase 278–448); 2) leucine zipper domain of ZIP-kinase (amino acids 398 to 448) (ZIP-kinase LZ); and 3) a variant of ZIP-kinase in which valine and leucine in the leucine zipper domain were substituted with alanine (ZIP-kinase LA). Each of these variants was designed to produce a chimeric protein with GAL4 trans activating domain, and DNA coding for said chimeric protein was inserted into pACT2 and introduced into yeast strain Y190 together with pAS2-1-ATF4 LZ. The strain was cultivated on histidine+, tryptophan–, leucine–, and histidine–, tryptophan–, leucine– selective media.

B1: ZIP-kinase LA (variant of mouse ZIP-kinase in which valine and leucine in the leucine zipper domain were substituted with alanine) as chimeric protein with … (enzyme)
chain: MSTFRQEDVEDHYEMGEELGSGQFAIVRKCQQKGTGMEYAAKFIKKRRLPSSRRGVSREEIEREVSILREIRHPNIITLHDVFENKTDVVLILELVSGGELFDFLAEKESLTEDEATQFLKQILDGVHYLHSKRIAHFDLKPENIMLLDKHAASPRIKLIDFGIAHRIEAGSEFKNIFGTPEFVAPEIVNYEPLGLEADMWSIGVITYILLSGASPFLGETKQETLTNISAVNYDFDEEYFSSTSELAKDFIRRLLVKDPKRRMTIAQSLEHSWIKVRRREDGARKPERRRLRAARLREYSLKSHSSMPRNTSYASFERFSRVLEDVAAAEQGLRELQRGRRQCRERVCALRAAAEQREARCRDGSAGLGRDLRRLRTELGRTEALRTRAQEEARAALLGAGGLKRRLCRLENRYDALAAQAAAEVQFARDLVRAAEQERLQAECGVR
Take B1: the binding result is “no binding”.
